In assay [1] the target is T1, PBX proteins of murine B16 melanoma cells (mouse (murine B16 melanoma cells), UniProt P41778 1-430, limits assumed).
T1 sequence (looked up): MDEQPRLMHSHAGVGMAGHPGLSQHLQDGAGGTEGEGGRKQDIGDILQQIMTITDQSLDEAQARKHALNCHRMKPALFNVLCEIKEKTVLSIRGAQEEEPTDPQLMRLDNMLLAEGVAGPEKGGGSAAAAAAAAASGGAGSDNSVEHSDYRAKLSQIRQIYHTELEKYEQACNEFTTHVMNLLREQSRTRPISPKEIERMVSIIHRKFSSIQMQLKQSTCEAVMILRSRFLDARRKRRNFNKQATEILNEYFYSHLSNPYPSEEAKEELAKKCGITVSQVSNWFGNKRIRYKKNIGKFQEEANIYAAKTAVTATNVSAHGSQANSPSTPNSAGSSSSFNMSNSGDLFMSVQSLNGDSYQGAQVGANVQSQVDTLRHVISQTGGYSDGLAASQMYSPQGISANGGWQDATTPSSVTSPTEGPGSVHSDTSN
In words: cell-based or functional assay.

Assay [2] deals with PBX proteins of human cancer cell lines (A549, LNCaP, SK-OV3, A498, J82) (human (human cell lines)). As to the kind of experiment: cell-based or functional assay.

Non-standard residues stand in square brackets, D forms with d. No end group written: not given here.

On to [dW]YPWMKKHHRRRRRRRR[dR] [HXArg9(2D)], for which the “IC50 (µM), MTT assay, B16F10” value in assay [1] was found to be 20 µM. In assay [2], the “IC50 (µM), MTT assay, A498” value worked out at 24 µM; the “IC50 (µM), MTT assay, A549” value stood at 19 µM; the “IC50 (µM), MTT assay, J82” value was found to be 22 µM; the “IC50 (µM), MTT assay, LNCaP” value was 21 µM. Moreover, the “IC50 (µM), MTT assay, SK-OV3” value in assay [2] came to 22 µM.

The values above are taken from patent US20090286738A1 (ST GEORGE S ENTERPRISES, published 2009).
